Source: patent publication US20160137713A1

Assays:
[1] = molecular target: human FcRn on HEK293 cells (human) (UniProt P55899); assay: FACS competition on hFcRn HEK293 cells at pH 6.0; remaining binding of 100 nM Alexa488-labeled hIgG1 (m14) with 500 nM unlabeled competitor, percent of the tube without competitor
[2] = molecular target: human FcRn on HEK293 cells (human) (UniProt P55899); assay: FACS competition on hFcRn HEK293 cells at pH 6.0; remaining binding of 100 nM Alexa488-labeled hIgG1 (m14) with 250 nM unlabeled competitor, percent of the tube without competitor
[3] = molecular target: human FcRn on HEK293 cells (human) (UniProt P55899); assay: FACS competition on hFcRn HEK293 cells at pH 6.0; remaining binding of 100 nM Alexa488-labeled hIgG1 (m14) with 1000 nM unlabeled competitor, percent of the tube without competitor
[4] = molecular target: human FcRn on HEK293 cells (human) (UniProt P55899); assay: FACS on hFcRn-overexpressing HEK293 cells at pH 7.4, Alexa488 anti-human goat antibody; hIgG1 is the reference of the ratio
[5] = molecular target: human FcRn on HEK293 cells (human) (UniProt P55899); assay: FACS on hFcRn-overexpressing HEK293 cells at pH 6.0, Alexa488 anti-human goat antibody; hIgG1 is the reference of the ratio

Relative MFI(%) at 500nM [1]: 69.9% | Relative MFI(%) at 250nM [2]: 87.4% | Relative MFI(%) at 1000nM [3]: 69.1% | Relative MFI (Fold) [4]: 1 fold | Relative MFI (Fold) [5]: 1 fold
Substance: human IgG1 (antibody)
